Data on 1 molecule can be found in publication PMC3869717, “The PCNA Interaction Protein Box Sequence in Rad54 Is an Integral Part of Its ATPase Domain and Is Required for Efficient DNA Repair and Recombination”.

One data set addresses T1, Rad54 (Saccharomyces cerevisiae, UniProt P32863 1-898).
T1 sequence: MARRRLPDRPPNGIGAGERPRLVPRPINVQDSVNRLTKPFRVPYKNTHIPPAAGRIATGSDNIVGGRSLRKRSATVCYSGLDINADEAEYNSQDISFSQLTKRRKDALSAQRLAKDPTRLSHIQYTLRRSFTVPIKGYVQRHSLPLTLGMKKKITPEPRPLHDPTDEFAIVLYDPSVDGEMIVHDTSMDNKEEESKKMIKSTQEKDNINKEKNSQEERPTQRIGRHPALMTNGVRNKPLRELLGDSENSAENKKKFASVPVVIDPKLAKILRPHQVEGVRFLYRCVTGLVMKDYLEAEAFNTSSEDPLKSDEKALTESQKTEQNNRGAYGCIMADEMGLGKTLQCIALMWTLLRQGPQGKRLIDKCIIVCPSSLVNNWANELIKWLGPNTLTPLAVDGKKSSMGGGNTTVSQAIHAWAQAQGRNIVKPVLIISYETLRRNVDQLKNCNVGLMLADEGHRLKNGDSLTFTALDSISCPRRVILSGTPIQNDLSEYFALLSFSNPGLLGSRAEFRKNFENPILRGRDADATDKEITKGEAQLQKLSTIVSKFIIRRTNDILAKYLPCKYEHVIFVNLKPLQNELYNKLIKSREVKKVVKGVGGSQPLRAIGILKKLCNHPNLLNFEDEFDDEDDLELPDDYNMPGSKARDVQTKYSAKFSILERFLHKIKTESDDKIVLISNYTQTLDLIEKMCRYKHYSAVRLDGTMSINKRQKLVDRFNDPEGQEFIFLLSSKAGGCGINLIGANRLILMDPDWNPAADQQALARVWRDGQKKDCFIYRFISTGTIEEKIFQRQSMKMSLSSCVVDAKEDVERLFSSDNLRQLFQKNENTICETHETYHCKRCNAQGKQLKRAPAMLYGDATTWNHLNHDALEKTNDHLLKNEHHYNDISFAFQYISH
The data set is described as follows: EMSA (native PAGE); no ATP; Buffer D: 40 mM Tris-HCl pH 7.8, 50 mM KCl, 1 mM DTT, 100 µg/ml BSA, 30 °C, 10 min; plasmid 30 µM nucleotides with 31.25-1000 nM protein; 49-mer 3 nM with 12.5-200 nM protein. The following applies: protein: recombinant; blunt.

For another data set, the target named is T2, Rad54-AA (Saccharomyces cerevisiae, UniProt P32863 1-898, Y494A;F495A).
T2 sequence: T1 sequence with Y494A, F495A
The data set is described as follows: EMSA (native PAGE); no ATP; equal to wild type; Buffer D: 40 mM Tris-HCl pH 7.8, 50 mM KCl, 1 mM DTT, 100 µg/ml BSA, 30 °C, 10 min; plasmid 30 µM nucleotides with 31.25-1000 nM protein; 49-mer 3 nM with 12.5-200 nM protein. Conditions: protein: recombinant; blunt. In general terms: A gel shift assay detects complexes by their altered migration in electrophoresis.

Substitutions are numbered along the chain they refer to.

B1: dsDNA 49-mer (dsDNA)
DNA 1: AGCTACCATGCCTGCACGAATTAAGCAATTCGTAATCATGGTCATAGCT
DNA 2: AGCTATGACCATGATTACGAATTGCTTAATTCGTGCAGGCATGGTAGCT
Consider B1, for which the binding result in the data set with Rad54 and with Rad54-AA was “binds” throughout.
